Measured values as given in the supplement of paper PMC7877785.
± gives the uncertainty stated by the source.

Assay: self-splicing fitness, log relative to wild type (ln ratio); higher = more splicing; Tetrahymena group I intron in knt gene, E. coli kanamycin selection, DiMSum; sequences stand for … in CUCUCU…GGAGGGAAAAGUUAUCAGGCAUGCACCUGGUAGCUAGUCUUUAAACCAAUAGAUUGCAUCGGUUUAAAAGGCAAGACCGUCAAAUUGCGGGAAAGGGGUCAACAGCCGUUCAGUACCAAGUCUCAGGGGAAACUUUGAGAUGGCCUUGCAAAGGGUAUGGUAAUAAGCUGACGGACAUGGUCCUAACCACGCAGCCAAGUCCUAAGUCAACAGAUCUUCUGUUGAUAUGGAUGCAGUUCACAGACUAAAUGUCGGUCGGGGAAGAUGUAUUCUUCUCAUAAGAUAUAGUCGGACCUCUCCUUAAUGGGAGCUAGCGGAUGAAGUGAUGCAACACUGGAGCCGCUGGGAACUAAUUUGUAUGCGAAAGUAUAUUGAUUAGUUUUGGAGUACUCGUGGUCG
Method in brief: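 Pooled colonies went to amplicon sequencing on an Illumina HiSeq 2500 after six replicate transformations. The plates were LB agar with 100 μg/mL carbenicillin, 50 μM IPTG and 0.2% rhamnose, with or without 25 μg/mL kanamycin, incubated overnight at 37°C or 30°C. The E. coli BL21(DE3) library had all eight P1ex-region intron nucleotides randomised, the intron placed in the knt kanamycin-resistance gene on pET-22b(+). DiMSum fitness is the error-weighted combination of replicate fold changes, kanamycin against none, normalised to wild type.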

Sequence	self-splicing fitness (ln) (30 °C)	self-splicing fitness (ln) (37 °C)
UGCUAGCAAUAUUACGGUCU	-0.539 ± 0.084	-0.14 ± 0.08
UGCUAGCAAUAUUACGGUUC	-2.49 ± 0.16	-1.69 ± 0.14
UGCUAGCAAUAUUACGUAAC	-3.31 ± 0.28	-1.84 ± 0.29
UGCUAGCAAUAUUACGUAGU	-3.35 ± 0.2	-2.71 ± 0.25
UGCUAGCAAUAUUACGUCGU	-2.15 ± 0.14	-3.03 ± 0.31
UGGAAGCAAUAUUACGAAAG	-1.72 ± 0.16	-0.893 ± 0.2
UGGAAGCAAUAUUACGAAGA	-2.23 ± 0.28	-1.01 ± 0.28
UGGAAGCAAUAUUACGACAG	-0.462 ± 0.13	-0.603 ± 0.19
UGGAAGCAAUAUUACGACAU	-2.825 ± 0.021	-1.92 ± 0.035
UGGAAGCAAUAUUACGACCA	-0.871 ± 0.18	-0.92 ± 0.21
UGGAAGCAAUAUUACGAGGU	-2.77 ± 0.42	-2.08 ± 0.4
UGGAAGCAAUAUUACGAGUA	-1.94 ± 0.22	-1.13 ± 0.17
UGGAAGCAAUAUUACGAUCU	-0.0165 ± 0.12	-0.454 ± 0.15
UGGAAGCAAUAUUACGAUGA	-0.768 ± 0.18	-0.0449 ± 0.17
UGGAAGCAAUAUUACGAUGC	-1.67 ± 0.25	-1.13 ± 0.31
UGGAAGCAAUAUUACGCACG	-0.874 ± 0.12	0.34 ± 0.15
UGGAAGCAAUAUUACGCAUA	-1.68 ± 0.17	-0.329 ± 0.14
UGGAAGCAAUAUUACGCUGG	-1.74 ± 0.12	-1.26 ± 0.14
UGGAAGCAAUAUUACGGCAA	-1.72 ± 0.39	0.0721 ± 0.21
UGGAAGCAAUAUUACGGUCG	-0.0238 ± 0.081	0.332 ± 0.11
UGGAAGCAAUAUUACGGUUU	-4.66 ± 0.34	-2.59 ± 0.21
UGGAAGCAAUAUUACGUACG	-0.898 ± 0.11	0.202 ± 0.13
UGGAAGCAAUAUUACGUAGC	-2.29 ± 0.21	-0.661 ± 0.24
UGGAAGCAAUAUUACGUUAA	-0.681 ± 0.36	-0.67 ± 0.3
UGGAAGCAAUAUUACGUUUC	-2.56 ± 0.24	-2.82 ± 0.38

Sequence	self-splicing fitness (ln) (30 °C)	self-splicing fitness (ln) (37 °C)
UGGCAGCAAUAUUACGAACG	-0.0867 ± 0.16	0.145 ± 0.2
UGGCAGCAAUAUUACGAAUU	-3.42 ± 0.21	-2.47 ± 0.22
UGGCAGCAAUAUUACGAUAG	-2.32 ± 0.098	-0.473 ± 0.094
UGGCAGCAAUAUUACGAUCU	-0.344 ± 0.11	-0.112 ± 0.11
UGGCAGCAAUAUUACGCAUA	-0.869 ± 0.096	-0.265 ± 0.1
UGGCAGCAAUAUUACGCCAU	-3.71 ± 0.25	–
UGGCAGCAAUAUUACGCGAC	-2.66 ± 0.35	-1.64 ± 0.44
UGGCAGCAAUAUUACGCGCG	-0.287 ± 0.064	0.0127 ± 0.089
UGGCAGCAAUAUUACGCGGA	-1.48 ± 0.098	-0.878 ± 0.095
UGGCAGCAAUAUUACGGAUC	-2.22 ± 0.24	-1.99 ± 0.46
UGGCAGCAAUAUUACGGCCC	-1.18 ± 0.15	-0.287 ± 0.21
UGGCAGCAAUAUUACGGGGC	-3.67 ± 0.47	-2.18 ± 0.4
UGGCAGCAAUAUUACGGUAU	-3.72 ± 0.24	-1.73 ± 0.17
UGGCAGCAAUAUUACGGUGU	-3.4 ± 0.14	-2.41 ± 0.16
UGGCAGCAAUAUUACGUAUG	-0.256 ± 0.068	-0.15 ± 0.092
UGGCAGCAAUAUUACGUCAA	-1.16 ± 0.099	-0.518 ± 0.09
UGGCAGCAAUAUUACGUCCU	-0.363 ± 0.11	0.0307 ± 0.15
UGGCAGCAAUAUUACGUCGA	-0.694 ± 0.04	0.401 ± 0.058
UGGCAGCAAUAUUACGUGGC	-3.92 ± 0.18	-2.72 ± 0.19
UGGCAGCAAUAUUACGUGGU	-2.84 ± 0.15	-2.99 ± 0.23
UGGCAGCAAUAUUACGUGUC	-3.85 ± 0.19	-2.17 ± 0.19
UGGCAGCAAUAUUACGUGUG	-0.896 ± 0.043	-0.192 ± 0.057
UGGCAGCAAUAUUACGUUAA	-1.16 ± 0.084	-0.28 ± 0.084
UGGCAGCAAUAUUACGUUAC	-4.11 ± 0.46	-2.46 ± 0.25
UGGCAGCAAUAUUACGUUUA	-0.478 ± 0.084	0.426 ± 0.096

Sequence	self-splicing fitness (ln) (30 °C)	self-splicing fitness (ln) (37 °C)
UGGCAGCAAUAUUACGUUUU	-2.85 ± 0.14	-0.527 ± 0.13
UGGGAGCAAUAUUACGAAAA	-2.22 ± 0.31	-2.16 ± 0.34
UGGGAGCAAUAUUACGAAGU	–	-1.21 ± 0.3
UGGGAGCAAUAUUACGACGG	-2.22 ± 0.26	-1.69 ± 0.39
UGGGAGCAAUAUUACGAUAA	-0.547 ± 0.44	–
UGGGAGCAAUAUUACGAUAG	-3.25 ± 0.32	–
UGGGAGCAAUAUUACGCAAG	-2.15 ± 0.36	–
UGGGAGCAAUAUUACGCCGG	-2.45 ± 0.23	-2.19 ± 0.31
UGGGAGCAAUAUUACGCGUU	-2.33 ± 0.28	-2.02 ± 0.44
UGGGAGCAAUAUUACGCUAU	-1.67 ± 0.29	-2.62 ± 0.38
UGGGAGCAAUAUUACGGACG	-1.52 ± 0.14	-0.236 ± 0.15
UGGGAGCAAUAUUACGGAGC	-3.98 ± 0.46	-1.65 ± 0.5
UGGGAGCAAUAUUACGGAUG	-3.69 ± 0.39	-1.14 ± 0.26
UGGGAGCAAUAUUACGGGAC	-4.71 ± 0.46	-2.7 ± 0.38
UGGGAGCAAUAUUACGGGAU	-3.11 ± 0.37	-2.17 ± 0.29
UGGGAGCAAUAUUACGGGUG	-3.33 ± 0.47	-0.981 ± 0.26
UGGGAGCAAUAUUACGUAAA	-1.97 ± 0.36	–
UGGGAGCAAUAUUACGUACG	-2.41 ± 0.26	-2.34 ± 0.21
UGGGAGCAAUAUUACGUAUA	–	-2.74 ± 0.35
UGGGAGCAAUAUUACGUCGU	-2.14 ± 0.2	-2 ± 0.46
UGGGAGCAAUAUUACGUCUU	-3.74 ± 0.35	-2.54 ± 0.3
UGGGAGCAAUAUUACGUUAC	-2.73 ± 0.47	–
UGGUAGCAAUAUUACGACAC	-2.43 ± 0.32	-1.69 ± 0.18
UGGUAGCAAUAUUACGACAG	-0.598 ± 0.3	-0.713 ± 0.38
UGGUAGCAAUAUUACGAGAA	–	-1.11 ± 0.36

Sequence	self-splicing fitness (ln) (30 °C)	self-splicing fitness (ln) (37 °C)
UGGUAGCAAUAUUACGAUAA	-1.45 ± 0.21	-0.6 ± 0.24
UGGUAGCAAUAUUACGAUCA	-0.00935 ± 0.1	0.325 ± 0.13
UGGUAGCAAUAUUACGAUCC	-0.523 ± 0.11	-0.731 ± 0.16
UGGUAGCAAUAUUACGCCUU	-0.729 ± 0.15	0.426 ± 0.18
UGGUAGCAAUAUUACGCUGC	-2.89 ± 0.31	-2.86 ± 0.4
UGGUAGCAAUAUUACGGAGC	–	-0.765 ± 0.31
UGGUAGCAAUAUUACGGCCA	-2.07 ± 0.3	-1.94 ± 0.45
UGGUAGCAAUAUUACGGCCC	-0.562 ± 0.18	-0.000115 ± 0.21
UGGUAGCAAUAUUACGGCGG	-0.708 ± 0.082	-0.0108 ± 0.1
UGGUAGCAAUAUUACGGGGU	-3.24 ± 0.43	–
UGGUAGCAAUAUUACGUGGU	-4.36 ± 0.28	-2.7 ± 0.36
UGGUAGCAAUAUUACGUUUA	-1.58 ± 0.11	-0.847 ± 0.1
UGUAAGCAAUAUUACGACAU	-1.44 ± 0.015	-0.831 ± 0.034
UGUAAGCAAUAUUACGACGA	-0.272 ± 0.12	-0.249 ± 0.11
UGUAAGCAAUAUUACGAGGA	-2.17 ± 0.36	-2.61 ± 0.34
UGUAAGCAAUAUUACGAUAA	-1.12 ± 0.1	0.257 ± 0.13
UGUAAGCAAUAUUACGAUCC	-1.49 ± 0.34	-0.943 ± 0.42
UGUAAGCAAUAUUACGAUUC	–	-2.35 ± 0.26
UGUAAGCAAUAUUACGCACU	-0.554 ± 0.094	-0.349 ± 0.12
UGUAAGCAAUAUUACGCCGA	-1.5 ± 0.14	-1.63 ± 0.18
UGUAAGCAAUAUUACGCCUA	-0.337 ± 0.14	0.331 ± 0.15
UGUAAGCAAUAUUACGCGUG	-0.994 ± 0.066	0.0779 ± 0.079
UGUAAGCAAUAUUACGCUGA	-3.08 ± 0.26	-1.33 ± 0.16
UGUAAGCAAUAUUACGGAUG	-0.704 ± 0.07	-0.103 ± 0.095
